Two molecules from paper PMC5592140 (Cellular signalling, 2017) can be followed below.

Like-named read-outs stand apart in the source and are kept apart here.

Test [1] deals with T1, GST-MLK4β (Mixed Lineage Kinase 4β) (human, UniProt Q5TCX8-1 1-1036). As to the kind of experiment: pull-down.
Test [2] addresses T1, GST-MLK4β (Mixed Lineage Kinase 4β). As to the kind of experiment: pull-down. The source holds these as a separate data set.

T1 sequence (Q5TCX8 whole entry): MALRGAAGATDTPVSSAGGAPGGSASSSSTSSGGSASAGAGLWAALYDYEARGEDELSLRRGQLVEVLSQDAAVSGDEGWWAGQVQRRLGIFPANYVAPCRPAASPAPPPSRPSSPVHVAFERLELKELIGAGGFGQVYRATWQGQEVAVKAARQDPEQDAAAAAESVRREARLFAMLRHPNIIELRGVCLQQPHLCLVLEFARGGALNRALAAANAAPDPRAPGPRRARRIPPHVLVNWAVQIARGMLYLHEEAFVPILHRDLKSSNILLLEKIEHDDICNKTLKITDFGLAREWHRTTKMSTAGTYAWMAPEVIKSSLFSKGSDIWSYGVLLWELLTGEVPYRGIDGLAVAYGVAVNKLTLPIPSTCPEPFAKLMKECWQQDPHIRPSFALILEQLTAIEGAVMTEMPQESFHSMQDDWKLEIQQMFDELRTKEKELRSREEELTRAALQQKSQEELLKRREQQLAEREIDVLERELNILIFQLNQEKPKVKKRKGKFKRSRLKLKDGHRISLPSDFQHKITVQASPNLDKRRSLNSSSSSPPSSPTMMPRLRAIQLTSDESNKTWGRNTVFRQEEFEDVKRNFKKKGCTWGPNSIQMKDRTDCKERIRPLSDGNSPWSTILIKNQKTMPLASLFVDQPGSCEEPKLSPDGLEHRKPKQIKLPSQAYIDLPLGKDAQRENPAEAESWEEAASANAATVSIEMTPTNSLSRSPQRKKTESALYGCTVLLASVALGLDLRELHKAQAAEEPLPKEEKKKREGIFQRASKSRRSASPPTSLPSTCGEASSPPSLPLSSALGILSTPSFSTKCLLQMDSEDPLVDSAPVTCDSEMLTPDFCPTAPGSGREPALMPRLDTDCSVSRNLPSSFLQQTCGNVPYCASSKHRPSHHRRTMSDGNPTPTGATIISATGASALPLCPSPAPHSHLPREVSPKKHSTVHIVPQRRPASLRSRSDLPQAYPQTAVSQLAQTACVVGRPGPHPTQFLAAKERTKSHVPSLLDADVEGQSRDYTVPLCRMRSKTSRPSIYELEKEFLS

B1: FLAG-CHIP (carboxy-terminus of Hsc70-interacting protein) (enzyme, human, UniProt Q9UNE7 1-303, looked up)
chain: MKGKEEKEGGARLGAGGGSPEKSPSAQELKEQGNRLFVGRKYPEAAACYGRAITRNPLVAVYYTNRALCYLKMQQHEQALADCRRALELDGQSVKAHFFLGQCQLEMESYDEAIANLQRAYSLAKEQRLNFGDDIPSALRIAKKKRWNSIEERRIHQESELHSYLSRLIAAERERELEECQRNHEGDEDDSHVRAQQACIEAKHDKYMADMDELFSQVDEKRKKRDIPDYLCGKISFELMREPCITPSGITYDRKDIEEHLQRVGHFDPVTRSPLTQEQLIPNLAMKEVIDAFISENGWVEDY
B1: in test [1], the binding result is listed as “binds”.

B2: His-MLK3 (Mixed Lineage Kinase 3) (enzyme, human, UniProt Q16584 1-847, looked up)
chain: MEPLKSLFLKSPLGSWNGSGSGGGGGGGGGRPEGSPKAAGYANPVWTALFDYEPSGQDELALRKGDRVEVLSRDAAISGDEGWWAGQVGGQVGIFPSNYVSRGGGPPPCEVASFQELRLEEVIGIGGFGKVYRGSWRGELVAVKAARQDPDEDISVTAESVRQEARLFAMLAHPNIIALKAVCLEEPNLCLVMEYAAGGPLSRALAGRRVPPHVLVNWAVQIARGMHYLHCEALVPVIHRDLKSNNILLLQPIESDDMEHKTLKITDFGLAREWHKTTQMSAAGTYAWMAPEVIKASTFSKGSDVWSFGVLLWELLTGEVPYRGIDCLAVAYGVAVNKLTLPIPSTCPEPFAQLMADCWAQDPHRRPDFASILQQLEALEAQVLREMPRDSFHSMQEGWKREIQGLFDELRAKEKELLSREEELTRAAREQRSQAEQLRRREHLLAQWELEVFERELTLLLQQVDRERPHVRRRRGTFKRSKLRARDGGERISMPLDFKHRITVQASPGLDRRRNVFEVGPGDSPTFPRFRAIQLEPAEPGQAWGRQSPRRLEDSSNGERRACWAWGPSSPKPGEAQNGRRRSRMDEATWYLDSDDSSPLGSPSTPPALNGNPPRPSLEPEEPKRPVPAERGSSSGTPKLIQRALLRGTALLASLGLGRDLQPPGGPGRERGESPTTPPTPTPAPCPTEPPPSPLICFSLKTPDSPPTPAPLLLDLGIPVGQRSAKSPRREEEPRGGTVSPPPGTSRSAPGTPGTPRSPPLGLISRPRPSPLRSRIDPWSFVSAGPRPSPLPSPQPAPRRAPWTLFPDSDPFWDSPPANPFQGGPQDCRAQTKDMGAQAPWVPEAGP
As for B2, the binding result in test [2] is reported as “binds”.
